Data as given in article PMC9279222, “Human myelin proteolipid protein structure and lipid bilayer stacking” (Cellular and Molecular Life Sciences: CMLS, 2022).

Target: the molecule itself
Assay: SEC-MALS; protein conjugate analysis; 50 µg protein on Superdex 200 Increase 10/300 in 0.2% DM, 0.3 M NaCl, 0.5 mM TCEP, 5% glycerol, 20 mM Tris pH 7.5; protein-detergent complex

B1: human myelin proteolipid protein (natural protein, UniProt P60201-1 1-277, looked up)
chain: MGLLECCARCLVGAPFASLVATGLCFFGVALFCGCGHEALTGTEKLIETYFSKNYQDYEYLINVIHAFQYVIYGTASFFFLYGALLLAEGFYTTGAVRQIFGDYKTTICGKGLSATVTGGQKGRGSRGQHQAHSLERVCHCLGKWLGHPDKFVGITYALTVVWLLVFACSAVPVYIYFNTWTTCQSIAFPSKTSASIGSLCADARMYGVLPWNAFPGKVCGSNLLSICKTAEFQMTFHLFIAAFVGAAATLVSLLTFMIAATYNFAVLKLMGRGTKF
notes: myelin proteolipid protein (PLP), human, 30 kDa; cloned from acc; NM_000533; Studied in a detergent complex (DM, UDM or d-DDM); also called PLP; myelin PLP; source: Sf21 insect cells (baculovirus), solubilized in DM or UDM, purified (IMAC, TEV cleavage, reverse IMAC, SEC); not shown: eGFP, C-terminal, cleaved; His8, C-terminal, cleaved
B1 was tested, and the “stoichiometry N” value was 2.

B2: human DM20 (shorter isoform of myelin proteolipid protein) (natural protein, UniProt P60201-2 1-242, looked up)
chain: MGLLECCARCLVGAPFASLVATGLCFFGVALFCGCGHEALTGTEKLIETYFSKNYQDYEYLINVIHAFQYVIYGTASFFFLYGALLLAEGFYTTGAVRQIFGDYKTTICGKGLSATFVGITYALTVVWLLVFACSAVPVYIYFNTWTTCQSIAFPSKTSASIGSLCADARMYGVLPWNAFPGKVCGSNLLSICKTAEFQMTFHLFIAAFVGAAATLVSLLTFMIAATYNFAVLKLMGRGTKF
notes: DM20, minor isoform of human PLP (26 kDa), lacks 35 residues in the intracellular loop; Studied in a detergent complex (DM or UDM); source: Sf21 insect cells (baculovirus), solubilized in DM or UDM, purified (IMAC, TEV cleavage, reverse IMAC, SEC); not shown: eGFP, C-terminal, cleaved; His8, C-terminal, cleaved
In the case of B2, the “stoichiometry N” value is reported as 2.
